Experimental data from the PETadex activity labels (doi:10.1021/acscatal.2c02275).
Numbering of substitutions follows the chain as printed.

Assays:
gfPET = assay: Proxy for plastic degradation [Relative activity]; conditions: pH 8
pcPET (post-consumer) = assay: Proxy for plastic degradation [Released monomer concentration (HPLC/LC-MS) (MHET+TPA+BHET)]; conditions: pH 8; part of the chain shown

B1: unnamed (protein)
chain: MANPYERGPDPTESSIEAVRGPFAVAQTTVSRLQADGFGGGTIYYPTDTSQGTFGAVAISPGFTAGQESIAWLGPRIASQGFVVITIDTITRLDQPDSRGRQLQAALDHLRTNSVVRNRIDPNRMAVMGHSMGGGGALSAAANNTSLEAAIPLQGWHTRKNWSSVRTPTLVVGAQLDTIAPVSSHSEAFYNSLPSDLDKAYMELRGASHSVSNTPDTTTAKYSIAWLKRFVDDDLRYEQFLCPAPDDFAISEYRSTCPF
gfPET
  Proxy for plastic degradation: 94%

B2: unnamed (protein)
chain: B1 chain with S210N
gfPET
  Proxy for plastic degradation: 97%

B3: unnamed (protein)
chain: B1 chain with S210L
pcPET (post-consumer)
  Proxy for plastic degradation: 70 mM

B4: unnamed (protein)
chain: B1 chain with I179W, S210L
gfPET
  Proxy for plastic degradation: 23%

B5: unnamed (protein)
chain: B1 chain with S210Y
gfPET
  Proxy for plastic degradation: 68%

B6: unnamed (protein)
chain: B1 chain with L93F, Q95Y, S210L
gfPET; part of the chain shown
  Proxy for plastic degradation: 100%
pcPET (post-consumer)
  Proxy for plastic degradation: 198 mM

B7: unnamed (protein)
chain: B1 chain with R205C, S210L, S251C
gfPET; part of the chain shown
  Proxy for plastic degradation: 100%
pcPET (post-consumer)
  Proxy for plastic degradation: 62 mM

B8: unnamed (protein)
chain: B1 chain with S210I
gfPET
  Proxy for plastic degradation: 54%

B9: unnamed (protein)
chain: B1 chain with I179F, S210L
gfPET
  Proxy for plastic degradation: 9%

B10: unnamed (protein)
chain: B1 chain with S210K
gfPET
  Proxy for plastic degradation: 48%

B11: unnamed (protein)
chain: B1 chain with S210W
gfPET
  Proxy for plastic degradation: 85%

B12: unnamed (protein)
chain: MSNPYQRGPNPTRSALTADGPFSVATYTVSRLSVSGFGGGVIYYPTGTSLTFGGIAMSPGYTADASSLAWLGRRLASHGFVVLVINTNSRFDGPDSRASQLSAALNYLRTSSPSAVRARLDANRLAVAGHSMGGGGTLRIAEQNPSLKAAVPLTPWHTDKTFNTSVPVLIVGAEADTVAPVSQHAIPFYQNLPSTTPKVYVELCNASHIAPNSNNAAISVYTISWMKLWVDNDTRYRQFLCNVNDPALCDFRTNNRHCQL
pcPET (post-consumer)
  Proxy for plastic degradation: 90 mM
